Assay results reported in paper PMC9922815.

Target: rabbit skeletal muscle F-actin (rabbit) (UniProt P68135)
Test: co-sedimentation; high-speed F-actin cosedimentation: 5 uM UtrN-R3 incubated 30 min with 0-160 uM phalloidin-stabilized F-actin, 100,000g for 20 min; F-buffer (4.5 mM Tris-HCl pH 8.0, 0.18 mM CaCl2, 50 mM KCl, 2 mM MgCl2, 1.2 mM ATP, 0.5 mM DTT); bound and free by densitometry of Coomassie gels, hyperbola fit

Kd [µM] | Substance
105 | UtrN-R3 WT, bacterially derived (mouse utrophin fragment encoding the N terminus through spectrin repeat 3, not phosphorylated) (from UniProt E9Q6R7 1-3430) (domain or fragment)
84.5 | UtrN-R3 WT, insect cell-derived (mouse utrophin fragment encoding the N terminus through spectrin repeat 3, phosphorylated) (from UniProt E9Q6R7 1-3430) (domain or fragment)
